In a protein production outcome set (Wang et al. 2014):
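Note: failed if final PepcDB status was selected cloned or expressed and not failed if soluble or beyond.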

Experiment: label from the status in PepcDB records
With “MKLAKKMILAAAVLPLTLGTTAALAYGGHGWDKEGDGHCGDRGERGIWKQLDLTAEQQAQLKEMREAGREEMRANRGQSHDAMKALHAQERALVLAADFDQAAAENLAKQMVDQQVTHRVKMMEKRHQMMSILTAEQKAKLQTLQQEKMAECMQDGQHGKGKKHASQLEHHHHHH” the protein production was “not failed”. With “MKLAYWMYAGPAHIGTLRISSSFRNVHAIMHAPLGDDYFNVMRSMLERERNFTPVTTSVVDRNVLARGSQEKVIDNILRKDTEERPDLIVLTPTCTSSILQEDLQNFVERAKESAQCDVLLADVNHYRVNELQAADRTLEQIVRFYLDRAQRQGTLPSQRTEQPSVNILGMTTLGFHNRHDTTELQRLMADLGITVNAVIPAGASVEELQHLPRAWFNLVPYREVGLLTAQYLQDTFDQPMVAIAPMGITATADCIRQIQQVLNQQGAAVDFEPFIDRQTRFASEAAWFSHSIDCQNLTGKRAVVFGDNTHAAAFTKILSREMGIHVVLAGTYCKHDADWFEAEVAGYCDRVLISDDHNAIADAIAELEPAAIFGTQMERHVGKRLNIPCGVIAAPVHIQNFPVGYRPFVGYEGANQIVDLVYNSFTLGMEDHLLEIFGGHDTKEVLTKTVSAGSDLDWKPDGLTELNRIPGFVRGKVKRNTEKYAREQGLTAITAEVLYAAKEALGALEHHHHHH” the protein production was “not failed”. In the case of “MKLDEIARLAGVSRTTASYVINGKAKQYRVSDKTVEKVMAVVREHNYHPNAVAAGLRAGRTRSIGLVIPDLENTSYTRIANYLERQARQRGYQLLIACSEDQPDNEMRCIEHLLQRQVDAIIVSTSLPPEHPFYQRWANDPFPIVALDRALDREHFTSVVGADQDDAEMLAEELRKFPAETVLYLGALPELSVSFLREQGFRTAWKDDPREVHFLYANSYEREAAAQLFEKWLETHPMPQALFTTSFALLQGVMDVTLRRDGKLPSDLAIATFG”, the protein production was “failed”. With “MKLFTTALFAIAFGIVIGLSFPSLWITEIWEPSNPRGAERLPSGIIASESDLYLRRLWGNPDEDLVKQPRYLATFTVGYNQRHNIDACVSKFSENFTIVLFHYDGVTSAWNDEFEWSRNAIHISVKKQTKWWYAKRFLHPDIVARYDYIFIWDEDLGVDHFNAEEYIHIVKKHDLEISQPGLDPETGFNWQITKRREHSEVHKETDEKLDWCSNPPRPPCAAFVEIMAPVFSRDAWRCVWHMIQNDLVHGWGLDFALRRCVEEPAFEKIGIVDSQWIVHQFIPSLGNQGKADNGKAPWQGVRDRCQMEWKMFENRVEAAEKDYFRSLQVESPSNSTTSH” the protein production was “failed”. In the case of “MKLGIGKIKDVLKSGAGKSTESGREEQKIEEIEPDRVEEATMTAKISEQESENTPDKEHLVPMNRTECKKTGLIFFPAFDWAISPTHPEREERLLYTRDQIFEEGLMDLPQIAEYKPRLAEFKDIARVHFCIPDIEAQATTPHLIAAGSCLVLADALMRGEVKNAFALVRPPGHHAMTVAHGNRGFCNINNEAILVEYLRKKYGIRRIAIVDTDVHHGDGTQEIFYNDPDILFISFHQDGRTLYPGSGFTNELGGPKALGRTINIPLPPGTPDEGILYVLDSLVMPILEDFKPELVLNSAGQDNHYTDPLANMRFSAQGYAKLNEKLGPDMAVLEGGYAIQSALPYVNTGIILAMAGLDYSCVMEPDFKPGMFVQAARDRQILEGVVATQLENWKNRNRLVEEEIAKHGDFYRRKKQIFYDTDMIQEVQEETIKMCPDCQGYVTIDSRAHRSINDTRIFGVSVPIYACNRCQAEAEEEYKKRLKSPEYEYVYLQDKKADEYRAYNMRTKQEIVY”, the protein production was “failed”. With “MKLGKTLAISCISMLSLSIWTQQVSAASAFDPSSEWMLGDWNGERTALKQKGYDFSIGYTGEMATVLDSKDTSRHGTEYAGQVALGTHFDLNKILGWQDTEAQITLTHRDGHDIKNKAAALEGQLSSTQEVYGRGQTTRLTDLWIKKKFFDQALDIKVGRFGESEDFNPAACDFQNLALCGDQMGNWNAGDQIHNWPVSQWAARVKYNVTPEVFAQVGVYEYNPENLKRSKGFNLSTDGSKGAVIPVEVVWQPKSGLINGLAGEYRAGYYYSTADANEINSTNKDHGQGGWLSFIQQLTAVNGDTSRGLKVVGQATFFDEATSRVKNTQSLAFAYKGLVDTRPKDELAIGFSRINLNDDAYLGKDVDSEYNSEIYYGIEATNWLTVRPNVQYVRHVGALKDGNNAWVGGIKFQTVF” the protein production was “failed”. In the case of “MKLIASNKKAYFDYEILETLEAGLALLGSEVKALRQTRVNLKDNFVKIIKGEAFLFGVHISYLDTIHAYYKPNERRERKLLLHKKQLLKWQIEASKERLSIVGLKLYFNQRNRAKIQIALVKGKRLHDKRQSLKEKALNKEILADLKHHFKG”, the protein production was “failed”. For “MKLIRVTLFLCALAILLLVTPTSSLQLKHPYSSPSQGLSKKIVTKMATRKLMIISSEYVMTSTSHEGSSEQLRVTSSGKSKDEEKKLSEEEEEKKALAKYLSMDYRTFRRRRPVHNKALPLDP”, the protein production was “failed”. With “MKLITKEVRIGIAGVAALCLLVFGINYLKGINMFKPASYFYVKFHNVNGLAQSSPVFADGVRVGIVRDIAYDYNQPENVIVEVEVDTDLRIPKGSSAELVPELMGGVRMNILLANNPRERYTVGDTIPGTLNNGMMEKVAAMMPAVEKMLPKLDSILTSLNTIMADQSIPATLHSIEKTTANLEVTSRQLKVLMNNDIPQLTGKLNTIGDNFVVISGNLKEIDYAATFKKIDTTLSNVKMLTEKLNSKDNTVGLLLNDPQLYNNLNQTTINAANLLEDLKEHPKRYVHFSLFGKKDKLEHHHHHH” the protein production was “failed”. With “MKLIWSPETASKAYIDTVKSCENLGTPGAAELVAAMAAGWNANLIVETWSEGETIAISVGLNIASRHTNGRHICIVPNARSQTAYLQAMAEQSCSNLPETIIMNEEGEELEHTMQTLQGIDFLVVDWDQKDFAANVLRNAVFGSRGAVVVCRSGYRRSTSCFSWTKAFSDRNVVRTVTLPVSGGLEIAHVAAARSSGKSDNNSNKRKWIKHFDQRSGEEHVIRK” the protein production was “failed”. With “MKLKDDPDIIRWINSRPRQALFASVAMVISTMSIGLFKGFDMWTADFFIFSCLLIGFGLLVGWLQKIYYKKVIFEENSDR” the protein production was “failed”. In the case of “MKLKKRKVAAALLKRFTLPLLFTTGSLGAVTYEVHGDFINFAKVGFNHSPINPVKGIYPTETFVNLTGKLEGSVHLGRGWTVNLGGVLGGQAYDGTKYDRWAKDFTPPSYWDKTSCGTDSMSLCMNATKMWQQSGPGGVINPRGIGWEYMGEWNGLFPNYYPANAYLPGGSRRYQVYKANLTYDSDRVHMVMGRFDITEQEQMDWIYQLFQGFYGTFKLTKNMKFLLFSGWGRGIADGQWLFPIYREKPWGVHKAGIIYRPTKNLMIHPYVYLIPMVGTLPGAKIEYDTNPEFSGRGIRNRTTFYALYDYRWNNAEYGRYAPARYNTWDPFLDNGKWRGLQGPGGATLLLRHHIDINNYFVVGGAYLNIGNPNMNLGTWGNPVAVDGIEQWVGSIYSLGFAGIDNITDADAFTEYVKGGGKHGKFSWSVYQRFTTAPRALEYGIGMYLDYQFSKHVKAGLKLVWLEFQIRAGYNPGTGFLGPNGQPLNLNTGLFESSAFAQGPQNMGGIAKSITQDRSHLMTHISYSF”, the protein production was “failed”. In the case of “MKLKTKTMEWSGNSLKLLDQRKLPFIEEYVECKTHEEVAHAIKEMIVRGAPAIGVAAAFGYVLGLRDYKTGSLTDWMKQVKETLARTRPTAVNLFWALNRMEKVFFENADRENLFEILENEALKMAYEDIEVNKAIGKNGAQLIKDGSTILTHCNAGALATVDYGTALGVIRAAVESGKRIRVFADETRPYLQGARLTAWELMKDGIEVYVITDNMAGWLMKRGLIDAVVVGADRIALNGDTANKIGTYSLAVLAKRNNIPFYVAAPVSTIDPTIRSGEEIPIEERRPEEVTHCGGNRIAPEGVKVLNPAFDVTENTLITAIITEKGVIRPPFEENIKKILEV”, the protein production was “not failed”. In the case of “MKLKTRICKKNSIRNSEKVEESSKSTTNCPLSCVDWSSNEEIYFVSDDHQIFKWSDVSRDSVEVAKLPDDFVPTDMHWLLLGGRSSGGGKGSDTLLICSNDGRFVILNKSARVERSISAHAAAISSGRWSPDGAGLLTAGEDGVIKIWSRSGMLRSTVVQNEESIRCARWAPNSNSIVFCQGGHISIKPLAANSKIIRWRAHDGLVLSLSWSTQSNIIASGGEDFRFKIWDAQGANLFTSAAEEYAITSVAFNPEKDYLLWSYNTARFSSPRVGSIFNLSWSADGTQATCGTSTGQLIVAYAIEQQLVSGNLKATSKSRKSITLKDIATGTQDILDFPQRVVSFGLGYGHLVVATTNQVHIYNEKYINTPIIIDGRNDTRVIEVGKKYFMILDALSIWVYTYTGRLHLNPRYPGSQAQIPLLTWRSLSLGLDVLAIRDNSDPTVLHLFDLIPGASRQYDPHSLRAKQQLVQIAACRAGSPEDQFVAFIDSNRELFVSESRNLNSERIDEIYKIGTQLTAIMWASETNILVGVHDSCYSIWYCPGEGASDPTIIALTTITLDTTEFGKHITIESFEESVLTFRSAGALLPVNVNMYCEILHRALLEGQWQQALKICRMGQHSSLWATLAAVATRKHQLQISEEAYSAALQIDKVSYLQHLKALTPSSAEQMAENSLMLGRMLEAETILLHGKKIEQAVGLALRMHNWRRALEISQKHKGEQPELVPRVLQERRKYLKALQREEWDPLYLPLVAKEEADNTSE”, the protein production was “failed”. For “MKLLNVLLLTTSLSVFYTYAETDYQWLRDDSRSEPAVKQFLAEHNRKTDHWFAPAKPLVQELVNEWQQTSQHKAPPPALIYANQQYNDIQWNGHRHIVKIGAQGQIEPLLNLSARAEPFDYYQLASWSLDRSVQSVALAEDTRGDEQFKLTIVRLADRTEQIVSETASTYFAWAADGKSLYYLSDLNGSTQLQRFELETGQSTRLAEWRSAEWLFSLYSASNPRYLVVQQNNENSTQQRLLDTQTGELMPWLRTTEPGLEYYADVLGETLYINSNHQGAFRLYRQPLHTKQDWQSVTTHKEIGSLSNFYLFDAGIVLVENQTLAPKVWVLDSQGEVRTHFELRDLGQVAWISRNGDAVSNRLRVRTMSMTEPASWHELDVAQLQWQQLSQDHYADFDPKQYQTQTVWVTQGAIQVPVTLAYRSDKLTPNSSVVLYGYGAYGVTMKPYFMPQIVSLLDRGMIYAIAHVRGGGYLGEAWHQAGAGLNKQNGIDDFLAAARYLTHFQQGERAIYTIGGSAGGTLVAAALNQQPNLFAGAVLQVPFVDVLASMSDTSQALTAQQYQEWGNPQQPEQRQVMQAYDPLSNLRAAPYPPTLVNVGWWDNRVPYWEGARYLARLSDVSQGAGPYLLSTDFQAGHASDRRQALEKQAREYAFFLTLDKTRKAGQ”, the protein production was “failed”. With “MKLQGSNILGQEQIDLLTTRGLNFVWFPKQLETIYRFQYQNGAAYEFRYRAPIILILYLFLSFGIYQVLPTEQVLSWLSYYSWVGIIVLIAWILSFIKKLNQWFDYYVGIGSSAAVAITFILINVLENGQDNVLFHAAMMYAIVIIYGAVGMRFYTAIIAGWVGGLIGILVSTYLNGDIDWTFLNRTYTFSSFLGMTLAYATDRQHRENYLQNCMIELNRIELMQQAQQLSLLSQQDALTGLANRRYLDETLDNEWRRALRHETPLTIMMVDIDFFKPYNDSLGHLKGDQCLKDIATAISSIAARSGDLVARYGGEEFLLLFPMTNAQQAKIQAERLMNAIKKIAIVHPCSSVSPYVTISVGVATTIPRLNDSISAFVSRADHALYQAKTNGRNQYQIALNEEQIVDLT” the protein production was “failed”. For “MKLRHCLIIVFACCAALWSESPSIADDAVRTSLAGLEWHVVTDVWPPFRIEQETGLVGIDVDILKALSTSLGLRLRISRAPWGRCLKMLETGAADAMIGLAKSAEREVYIRYVPTSYYTCSPRFYILAGARRAVLTYDDLEGMRVGYVAQSRYFEPFDSDTKLQKYAVPTERQLLELLLAGRVDVMVGTDCQVDYELAEAGLLERVVVAPYRPDAHTRLYLGFSRKSRFVPRIALFDDAMRDLLEKGALKQIRASYLPDSSVSGR”, the protein production was “failed”. With “MKLSQQSLSIIESAIQKAVGKYVCNCEQTVVTDIHLQPDQTSGQLNIYNDDDEELANVMVEEWATYDGDDFLENIEPGLRSILCRMKDAGDFDKVTILKPYSFVLVDEDKETVTELLLVDDDTMLVNDELLKGLDKELDDFLKELLEK” the protein production was “failed”.
